The values below come from US7223731B2, “Thrombospondin-1 type 1 repeat polypeptides” (Beth Israel Deaconess Medical Center, Inc., priority 2000, dated 2007).

Assay [1] has as its system Human dermal microvessel endothelial cells (HDMEC). In words: In vitro endothelial cell migration assay (FGF-2 induced, transwell). The assay is classed as cell-based. The note with it: HDMEC migration in response to FGF-2. How it is done:
Human dermal microvessel endothelial cells (HDMEC) were isolated by the procedure of Richard et al., Exp. Cell Res. 240:1–6 (1998). The cells were cultured in Vitrogen precoated dishes, and maintained in EBM (Clonetics Corp, San Diego, Calif.) containing 20% fetal bovine serum (FBS), 1 mg/ml hydrocortisone acetate, 5×10^−5 M dibutyryl-cAMP, 200 U/ml penicillin, 100 U/ml streptomycin, 250 mg/ml amphotericin and 2–5 ng/ml VEGF. Murine melanoma B16F10 and murine Lewis lung carcinoma cells were obtained from the ATCC, and were maintained in Dulbecco's Modified Eagle Media (DMEM) supplemented with 10% FBS, […] penicillin, 50 U/ml streptomycin, and 2 mM glutamine (supplemented DMEM). Mink lung epithelial cells (MLECs-Clone 32) that have been stably transfected with an 800 bp fragment of the plasminogen activator inhibitor-1 (PAI-1) promoter fused to the firefly luciferase reporter gene were kindly provided by Dr. Daniel Rifkin (Abe, M. et al., Anal. Biochem. 216:276–284, 1994). The transfected MLECs were maintained in supplemented DMEM.
Cells at passage 7–10 were serum-starved and maintained in EBM with 0.1% BSA (control media) for 20 hours before trypsinization to harvest the cells. Cells were washed in EBM twice and resuspended in control media at a concentration of 1×10^6 cells/ml. […] of cells were packed down and kept frozen. They were lysed and serially diluted by CyQuant reagent (Molecular Probe, Eugene, Oreg.) to be used for standard curve construction.
Transwell membrane (24-well polycarbonate membrane, […] from Corning Costar Corporation, Cambridge, Mass.) coated with Vitrogen (30 mg/ml, Invitrogen) on both sides was used for chemotactic migration experiments. Coated transwells were inverted, […] of cell suspension applied to the top of the membrane and covered by the bottom plate carefully so that the cell suspension stayed on top of the membrane. The cells were allowed to adhere to the coated membrane for two hours in an incubator at 37° C. with 5% CO2. After the adhesion incubation, the plates were re-inverted, the bottom wells were filled with 0.4 ml control media and the top wells were filled with 0.1 ml control media containing testing reagents. The plate was returned to the incubator for 3.5 hours for the cells to migrate. At the end of the incubation, the transwells were washed in PBS and the cells on the […] of the membrane (unmigrated cells) were wiped away with a cotton swab. The membranes were cut out by scalpel and placed into 96-well plates and frozen at −80° C. overnight. […] Fluorescence reading was done 16 hours later with a SpectraFluor plate reader with excitation at 485 nm and emission at […]. The number of cells migrated was then calculated based on the standard curve.

Assay [2] concerns Lewis lung carcinoma. The assay can be described thus: Primary tumor growth assay, Lewis lung carcinoma. The class given is in vivo, C57BL/6 mice. As to conditions: 2.5 mg/kg/day IP daily, treatment day 12. Here is the method: The proteins for injection were mixed with Polymyxin B-Agarose (Sigma) for 30 minutes at room temperature to remove endotoxin. The endotoxin levels were less than 0.05 EU/mg as determined using the QCL-1000 assay kit (Biowhittaker, Walkersville, Md.). Proteins were filter-sterilized and the protein concentration was determined prior to injection. Five to eight week old C57BL/6 mice (Taconic, Germantown, N.Y.) were acclimated, caged in groups of four or less and their backs were shaved. Cultured B16F10 melanoma or Lewis lung carcinoma cells (1×10^6) were inoculated subcutaneously on the back of each mouse. Tumors were measured with a dial-caliper and the volumes were determined using the formula width^2×length×0.52. The treatment began 4 days after inoculation of the tumor cells. […] The experiments were terminated and mice sacrificed when the control mice began to die, usually at day 16 post-tumor cell injection.

In assay [3] the test system is B16F10 tumor cell. In words: B16F10 tumor cell proliferation in vitro. The class given is cell-based, murine.

For “TSR2: recombinant protein that contains the second TSR of human TSP-1, amino acids 416–473, excludes DKRFK”, the “concentration maximally effective in inhibiting endothelial cell migration” value in assay [1] was 10 ng/mL.

B1: TSR2+RFK: recombinant longer version of the second type 1 repeat of human TSP-1 including the RFK sequence, amino acids 411–473 (protein, listed as Homo sapiens)
chain: DKRFKQDGGWSHWSPWSSCSVTCGDGVITRIRLCNSPSPQMNGKPCEGEARETKACKKDACPI
Regarding B1, in assay [2], the “inhibition of Lewis lung carcinoma tumor growth” value amounted to 77%. The “concentration maximally effective in inhibiting endothelial cell migration” value in assay [1] is 10 ng/mL. Besides, the “B16F10 tumor cell proliferation in vitro (in words)” value in assay [3] is “inhibit”.
